Reference: patent publication US9694061B2, “Fully human antibodies to high molecular weight-melanoma associated antigen and uses thereof” (University of Pittsburgh—Of the Commonwealth System of …, priority 2008, dated 2017)

Assays:
HMW-MAA [1] = target: T1, HMW-MAA (Homo sapiens, UniProt Q6UVK1); assay: ELISA of soluble scFv antibodies with cell lines; format: binding; parameters: Cultured human melanoma cells Colo38, FO-1, SK-MEL-28 and Melur, all of which express HMW-MAA; endogenous in cells; host or cells: Colo38, FO-1, SK-MEL-28, Melur human melanoma cells
Method: (§1) FIG. 1. Selective reactivity in ELISA of soluble scFv C21 with HMW-MAA^+ human cell lines. […] Binding of scFv fragments was detected using SA-HRP. Results are expressed as absorbance at 490 nm. Human anti-anti-id scFv #119 ( ? ) was used as a specificity control.
(§2) The ELISA to test the reactivity of soluble scFv antibodies with synthetic peptides and melanoma cells and of mouse immune sera with melanoma cells and with peptides was performed as described (Desai et al., Cancer Res 58:2417-2425, 1998; Desai et al., J Immunol 165:3275-3283, 2000; Matsui et al., J Immunol 139:2088-2095, 1987). Results are expressed as absorbance of optical density (O.D.) at 450 nm. The competition assay to map the antigenic determinant recognized by scFv C21 was performed by mixing biotinylated scFv C21 (0.25 μg/well) with two-fold dilutions of mouse mAb or scFv PP or by mixing biotinylated mAb (at an optimal amount giving absorbance, measured at 450 nm of 1.0) with two fold dilutions of scFv PP. […] Binding of biotinylated scFv antibodies and biotinylated mAb to target cells was measured by sequential incubation with SA-HRP and substrate as described (Noronha et al., J Immunol 161:2968-2976, 1998). The results are expressed as percent inhibition by mAb, scFv or peptide (competitor or inhibitor) of scFv or mAb binding to HMW-MAA^+ cells. […]

HMW-MAA [2] = target: T1, HMW-MAA; assay: Competition assay to map the antigenic determinant on SK-MEL-28 cells; format: binding; parameters: from tissue; host or cells: human nevi, primary and metastatic melanoma lesions (frozen sections); settings: biotinylated mAb VF1-TP34, competitor PP scFv C21
Method: FIG. 5. Spatial proximity of the determinant defined by scFv C21 and of that defined by mouse mAb VF1-TP34 on HMW-MAA^+ melanoma cells SK-MEL-28. Varying concentrations of mAb VF1-TP34 (-●-) (left panel) were mixed with biotinylated scFv C21 (0.25 μg/well). The mixture was then transferred to wells containing HMW-MAA^+ cells and incubated for 1 h at 4° C. Binding of antibodies was detected using SA-HRP. Results are expressed as % inhibition. Likewise, varying amounts of PP scFv C21 (-▴-) (right panel) were mixed with biotinylated mAb VF1-TP34 (40 ng/well). The mixture was then transferred to wells containing HMW-MAA^+ cells and incubated for 1 h at 4° C. […]
The ELISA to test the reactivity of soluble scFv antibodies with synthetic peptides and melanoma cells and of mouse immune sera with melanoma cells and with peptides was performed as described (Desai et al., Cancer Res 58:2417-2425, 1998; Desai et al., J Immunol 165:3275-3283, 2000; Matsui et al., J Immunol 139:2088-2095, 1987). Results are expressed as absorbance of optical density (O.D.) at 450 nm. The competition assay to map the antigenic determinant recognized by scFv C21 was performed by mixing biotinylated scFv C21 (0.25 μg/well) with two-fold dilutions of mouse mAb or scFv PP or by mixing biotinylated mAb (at an optimal amount giving absorbance, measured at 450 nm of 1.0) with two fold dilutions of scFv PP. […]

HMW-MAA [3] = target: T1, HMW-MAA; assay: Indirect immunoprecipitation and SDS-PAGE from labeled Colo38 cell lysate; format: binding
Method: FIG. 3. Structural relationship between molecules recognized by scFv C21 and by HMW-MAA-specific mouse mAb 763.74 in a HMW-MAA^+ Colo38 cell lysate. A 1% NP-40 extract of ^125I-labeled Colo38 cells was immunodepleted with mAb 763.74. The immunodepleted cell extract was immunoprecipitated with insolubilized mAb 763.74 and scFv C21. Antigens were eluted and analyzed by SDS-PAGE in an 8% polyacrylamide gel. Gels were fixed, dried and autoradiographed for up to 1 day at −80° C. A 1% NP-40 extract of ^125I-labeled Colo38 cells immunodepleted with 100 kD MAA-specific mouse mAb 376.94 was used as a control.
FIG. 4. Role of N-linked glycosylation in the expression of the antigenic determinant recognized by scFv C21 on HMW-MAA isolated from a HMW-MAA^+ Colo38 cell extract. A 1% NP-40 extract of Colo38 cells labelled with ^35S-methionine in the presence of tunicamycin (0, 2 and 3 μg/ml,) was immunoprecipitated with scFv C21. Antigens were eluted from the immunoadsorbent and analyzed by SDS-PAGE in an 8% polyacrylamide gel. Gels were fixed, dried and processed for fluorography for up to three days at −80° C. using Hyperfilm-ECL. HMW-MAA-specific mouse mAb 763.74 was used as a control.
Labeling of cells with ^125Iodine (Na^125 I; Amersham) or with ^35S methionine (Trans-^35S-label, ICN Biochemicals, Costa Mesa, Calif.) in the presence of tunicamycin (Sigma Chemical Co.) was performed as described (Noronha et al., J Immunol 161:2968-2976, 1998; Desai et al., J Immunol 165:3275-3283, 2000). Solubilization of labelled cells, immunoprecipitation, SDS-PAGE, autoradiography and fluorography were performed as described (Desai et al., Cancer Res 58:2417-2425, 1998) except for the use of Gammon Bind plus sepharose (Amersham) instead of protein A coated with rabbit anti-mouse IgG antibodies.

HMW-MAA [4] = assay: ELISA of soluble scFv antibodies with cell lines; format: binding, human; settings: soluble scFv clones isolated by panning with Colo38 cells
Method: as §1, §2

T1 sequence (Q6UVK1 30-2322): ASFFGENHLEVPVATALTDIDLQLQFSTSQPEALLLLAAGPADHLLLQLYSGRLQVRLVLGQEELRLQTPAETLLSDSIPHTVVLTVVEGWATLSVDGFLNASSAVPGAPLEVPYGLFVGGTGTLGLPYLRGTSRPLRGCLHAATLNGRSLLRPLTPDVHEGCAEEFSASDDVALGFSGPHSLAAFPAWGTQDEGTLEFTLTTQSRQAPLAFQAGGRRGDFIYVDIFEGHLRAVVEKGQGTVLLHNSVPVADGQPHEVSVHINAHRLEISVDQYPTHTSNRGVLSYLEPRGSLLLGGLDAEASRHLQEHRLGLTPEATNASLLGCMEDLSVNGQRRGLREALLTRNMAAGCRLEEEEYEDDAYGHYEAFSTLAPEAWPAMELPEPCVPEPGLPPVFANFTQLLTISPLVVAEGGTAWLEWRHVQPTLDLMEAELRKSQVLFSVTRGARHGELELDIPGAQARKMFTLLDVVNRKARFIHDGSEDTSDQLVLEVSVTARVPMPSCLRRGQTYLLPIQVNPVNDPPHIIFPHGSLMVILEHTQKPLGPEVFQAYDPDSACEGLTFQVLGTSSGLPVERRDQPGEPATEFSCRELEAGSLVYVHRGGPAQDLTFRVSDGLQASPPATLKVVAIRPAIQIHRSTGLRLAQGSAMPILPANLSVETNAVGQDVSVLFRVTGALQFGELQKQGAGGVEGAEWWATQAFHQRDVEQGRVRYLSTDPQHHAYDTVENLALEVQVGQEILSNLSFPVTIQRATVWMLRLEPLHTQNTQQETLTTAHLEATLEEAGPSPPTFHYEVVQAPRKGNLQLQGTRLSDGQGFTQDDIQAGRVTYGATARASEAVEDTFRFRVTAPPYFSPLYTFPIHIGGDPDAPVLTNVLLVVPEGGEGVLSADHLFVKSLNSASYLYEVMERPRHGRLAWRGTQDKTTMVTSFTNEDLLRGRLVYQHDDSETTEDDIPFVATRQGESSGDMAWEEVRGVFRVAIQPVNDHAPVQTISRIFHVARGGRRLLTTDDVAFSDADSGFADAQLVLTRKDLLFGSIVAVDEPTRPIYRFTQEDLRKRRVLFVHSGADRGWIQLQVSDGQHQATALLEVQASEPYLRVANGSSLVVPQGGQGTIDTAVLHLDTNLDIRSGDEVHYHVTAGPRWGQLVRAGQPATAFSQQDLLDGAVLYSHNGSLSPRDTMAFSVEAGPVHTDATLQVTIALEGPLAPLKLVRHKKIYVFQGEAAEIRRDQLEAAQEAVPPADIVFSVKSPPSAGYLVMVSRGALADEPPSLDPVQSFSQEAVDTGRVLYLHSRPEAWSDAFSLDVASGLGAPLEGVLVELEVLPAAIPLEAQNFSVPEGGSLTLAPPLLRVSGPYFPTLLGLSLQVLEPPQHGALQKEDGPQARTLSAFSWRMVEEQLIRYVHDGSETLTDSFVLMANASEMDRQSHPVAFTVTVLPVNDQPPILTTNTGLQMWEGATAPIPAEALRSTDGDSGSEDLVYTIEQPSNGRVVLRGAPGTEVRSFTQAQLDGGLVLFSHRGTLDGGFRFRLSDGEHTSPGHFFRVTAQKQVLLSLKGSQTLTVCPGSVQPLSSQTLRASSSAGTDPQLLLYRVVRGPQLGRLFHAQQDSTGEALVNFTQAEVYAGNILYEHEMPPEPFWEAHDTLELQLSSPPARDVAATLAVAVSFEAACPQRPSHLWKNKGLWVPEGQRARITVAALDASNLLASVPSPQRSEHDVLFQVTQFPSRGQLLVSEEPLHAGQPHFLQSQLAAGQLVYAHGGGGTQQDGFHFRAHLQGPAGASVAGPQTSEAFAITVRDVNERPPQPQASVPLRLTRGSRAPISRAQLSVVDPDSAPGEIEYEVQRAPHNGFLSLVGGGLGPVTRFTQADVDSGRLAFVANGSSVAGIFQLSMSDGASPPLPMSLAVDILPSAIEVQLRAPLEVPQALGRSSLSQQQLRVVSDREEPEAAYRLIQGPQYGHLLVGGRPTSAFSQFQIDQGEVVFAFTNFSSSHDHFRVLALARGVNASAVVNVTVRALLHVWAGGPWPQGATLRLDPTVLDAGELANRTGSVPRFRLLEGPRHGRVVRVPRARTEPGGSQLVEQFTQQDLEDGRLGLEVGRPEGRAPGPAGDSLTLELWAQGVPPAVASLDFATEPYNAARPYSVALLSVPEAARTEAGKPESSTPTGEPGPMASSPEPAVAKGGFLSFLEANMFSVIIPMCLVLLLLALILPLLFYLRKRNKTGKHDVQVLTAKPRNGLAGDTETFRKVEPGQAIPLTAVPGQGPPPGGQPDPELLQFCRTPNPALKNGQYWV

B1: scFv C21: HMW-MAA-specific fully human scFv from semi-synthetic phage display library; VH SEQ ID NO: 5, VL SEQ ID NO: 6 (antibody, listed as Homo sapiens, V domains shown)
VH: QVQLVQSGAEVKKPGSSVKVSCKASGGTFSSYAISWVRQAPGQGLEWMGGIIPIFGTANYAQKFQGRVTITADESTSTAYMELSSLRSDDTAVYYCARALDPITFDSWGQGTLVTVSR
VL: SELTQDPAVSVALGQTVRITCQGDSLRSYYASWYQQKPGQAPVLVIYGKNNRPSGIPDRFSGSSSGNTASLTITGAQAEDEADYYCNSRDSSGNHVVFGGGTKLTVLGRS
modifications: scFv linker
For B1, the “Reactivity in ELISA with panel of human cell lines with differential HMW-MAA expression and rat neural cell line B49” value (HMW-MAA [1]; FIG. 1) was “reacted only with the melanoma cell lines Colo38, FO-1, Melur and SK-MEL-28”, the “Reactivity in ELISA relative to the other selected clones” value (HMW-MAA [1]; clones C3, C21, C29, C30) was “highest reactivity” and the “Inhibition of binding of mAb VF1-TP34 to SK-MEL-28 cells” value (HMW-MAA [2]) was “partially inhibited each other”. For the same molecule, the “Effect of immunodepletion of Colo38 cell lysate with scFv C21 on components immunoprecipitated by mAb 763.74” value (HMW-MAA [3]) was “removed most, but not all the components immunoprecipitated by mAb 763.74”, the “Immunoprecipitation from 125I labeled Colo38 cells” value (HMW-MAA [3]) was “immunoprecipitated two components with the characteristic elecrophoretic profile of HMW-MAA components” and the “Intensity of HMW-MAA components immunoprecipitated from Colo38 cells labeled in the presence of tunicamycin” value (HMW-MAA [3]; 35S-methionine labeling, N-glycosylation inhibitor tunicamycin) was “marked reduction in the intensity of the HMW-MAA components immunoprecipitated”. The “Immunoprecipitation from Colo38 cell lysate immunodepleted with mAb 763.74” value (HMW-MAA [3]; sequential immunoprecipitation) was “did not immunoprecipitate any components”, the “Immunoprecipitation from Colo38 cell lysate immunodepleted with 100KD MAA-specific mAb 376.96” value (HMW-MAA [3]; specificity control of immunodepletion) was “immunoprecipitated the HMW-MAA components” and the “Reactivity in ELISA with Colo38, FF2376 fibroblasts and T24 bladder carcinoma cells” value (HMW-MAA [4]) was “selective reactivity with Colo38 cells”.
